Data on one variant can be found in IntAct's records for PubMed 29892012.

To fix the notation:
B1: Late cornified envelope protein 1B (Homo sapiens), Q5T7P3 (parent)
chain: MSCQQNQQQCQPPPKCIPKCPPKCLTPRCPPKCPPKCPPVSSCCSVSSGGCCGSSSGGSCGSSSGGCCSSGGGGCCLSHHRRRRSHCHRPQSSGCCSQPSGGSSCCGGGSGQHSGGCC

In the first assay the parent is B1. The following applies: with kr108_human KRTAP10-8, P60410.
Chain of kr108_human KRTAP10-8, P60410 (P60410 whole entry): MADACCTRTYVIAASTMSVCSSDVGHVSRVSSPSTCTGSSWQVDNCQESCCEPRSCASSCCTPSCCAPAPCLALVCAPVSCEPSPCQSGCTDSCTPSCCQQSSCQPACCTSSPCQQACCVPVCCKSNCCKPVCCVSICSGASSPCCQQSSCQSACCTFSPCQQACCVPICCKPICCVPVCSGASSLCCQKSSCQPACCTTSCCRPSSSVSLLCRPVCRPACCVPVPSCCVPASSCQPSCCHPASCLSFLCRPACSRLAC
With MSCQQNQQQCQPPPKYIPKCPPKCLTPRCPPKCPPKCPPVSSCCSVSSGGCCGSSSGGSCGSSSGGCCSSGGGGCCLSHHRRRRSHCHRPQSSGCCSQPSGGSSCCGGGSGQHSGGCC [C16Y], the “effect of a mutation on the interaction” value was “disrupting interaction strength”.

Variants of B1 are the subject of the next assay. The following applies: with kr103_human KRTAP10-3, P60369.
Chain of kr103_human KRTAP10-3, P60369 (P60369 whole entry): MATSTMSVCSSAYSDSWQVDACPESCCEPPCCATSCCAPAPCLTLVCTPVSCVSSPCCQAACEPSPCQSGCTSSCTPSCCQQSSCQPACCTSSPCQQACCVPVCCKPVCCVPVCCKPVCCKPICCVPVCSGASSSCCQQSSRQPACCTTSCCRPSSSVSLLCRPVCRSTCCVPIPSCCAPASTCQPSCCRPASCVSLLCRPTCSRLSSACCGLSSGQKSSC
With MSCQQNQQQCQPPPKYIPKCPPKCLTPRCPPKCPPKCPPVSSCCSVSSGGCCGSSSGGSCGSSSGGCCSSGGGGCCLSHHRRRRSHCHRPQSSGCCSQPSGGSSCCGGGSGQHSGGCC [C16Y], the “effect of a mutation on the interaction” value is “disrupting interaction strength”.

Variants of B1 are the subject of the next assay. The following applies: with kr101_human KRTAP10-1, P60331.
Chain of kr101_human KRTAP10-1, P60331 (P60331 whole entry): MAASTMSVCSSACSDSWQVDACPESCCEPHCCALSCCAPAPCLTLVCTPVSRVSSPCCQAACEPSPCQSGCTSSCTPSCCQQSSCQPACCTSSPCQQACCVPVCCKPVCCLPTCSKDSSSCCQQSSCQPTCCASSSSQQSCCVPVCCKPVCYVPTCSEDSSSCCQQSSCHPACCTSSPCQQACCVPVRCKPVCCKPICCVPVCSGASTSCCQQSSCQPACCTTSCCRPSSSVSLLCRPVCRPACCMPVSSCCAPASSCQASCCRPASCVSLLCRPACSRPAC
Take MSCQQNQQQCQPPPKYIPKCPPKCLTPRCPPKCPPKCPPVSSCCSVSSGGCCGSSSGGSCGSSSGGCCSSGGGGCCLSHHRRRRSHCHRPQSSGCCSQPSGGSSCCGGGSGQHSGGCC [C16Y]: the “effect of a mutation on the interaction” value is “with no effect”.

Variants of B1 are the subject of the next assay. The following applies: with hxa1_human HOXA1, P49639.
Chain of hxa1_human HOXA1, P49639 (P49639 whole entry): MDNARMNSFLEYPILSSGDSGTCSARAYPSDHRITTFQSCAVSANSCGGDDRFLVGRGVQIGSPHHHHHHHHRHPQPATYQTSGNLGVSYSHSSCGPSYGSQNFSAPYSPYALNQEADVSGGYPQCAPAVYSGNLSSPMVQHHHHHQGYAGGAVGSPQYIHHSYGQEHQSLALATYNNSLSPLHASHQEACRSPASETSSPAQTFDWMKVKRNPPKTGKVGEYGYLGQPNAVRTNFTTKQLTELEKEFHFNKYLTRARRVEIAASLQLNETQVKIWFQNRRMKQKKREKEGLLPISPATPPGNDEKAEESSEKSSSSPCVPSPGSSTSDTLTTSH
As to MSCQQNQQQCQPPPKYIPKCPPKCLTPRCPPKCPPKCPPVSSCCSVSSGGCCGSSSGGSCGSSSGGCCSSGGGGCCLSHHRRRRSHCHRPQSSGCCSQPSGGSSCCGGGSGQHSGGCC [C16Y], the “effect of a mutation on the interaction” value was “with no effect”.

A further assay covers variants of B1. The following applies: with kr105_human KRTAP10-5, P60370.
Chain of kr105_human KRTAP10-5, P60370 (P60370 whole entry): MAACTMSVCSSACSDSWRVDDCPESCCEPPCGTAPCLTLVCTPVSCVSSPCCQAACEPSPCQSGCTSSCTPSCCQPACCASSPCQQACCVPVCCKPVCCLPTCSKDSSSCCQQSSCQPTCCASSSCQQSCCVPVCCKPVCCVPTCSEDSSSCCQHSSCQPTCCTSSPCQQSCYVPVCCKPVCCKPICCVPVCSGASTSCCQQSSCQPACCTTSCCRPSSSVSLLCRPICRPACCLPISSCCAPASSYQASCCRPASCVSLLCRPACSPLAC
MSCQQNQQQCQPPPKYIPKCPPKCLTPRCPPKCPPKCPPVSSCCSVSSGGCCGSSSGGSCGSSSGGCCSSGGGGCCLSHHRRRRSHCHRPQSSGCCSQPSGGSSCCGGGSGQHSGGCC [C16Y]: the “effect of a mutation on the interaction” value is “disrupting interaction strength”.

Variants of B1 are the subject of a further assay. The following applies: with mdfi_human MDFI.
Regarding MSCQQNQQQCQPPPKYIPKCPPKCLTPRCPPKCPPKCPPVSSCCSVSSGGCCGSSSGGSCGSSSGGCCSSGGGGCCLSHHRRRRSHCHRPQSSGCCSQPSGGSSCCGGGSGQHSGGCC [C16Y], the “effect of a mutation on the interaction” value is reported as “disrupting interaction strength”.

Another assay covers variants of B1. The following applies: with otx1_human OTX1, P32242.
Chain of otx1_human OTX1, P32242 (P32242 whole entry): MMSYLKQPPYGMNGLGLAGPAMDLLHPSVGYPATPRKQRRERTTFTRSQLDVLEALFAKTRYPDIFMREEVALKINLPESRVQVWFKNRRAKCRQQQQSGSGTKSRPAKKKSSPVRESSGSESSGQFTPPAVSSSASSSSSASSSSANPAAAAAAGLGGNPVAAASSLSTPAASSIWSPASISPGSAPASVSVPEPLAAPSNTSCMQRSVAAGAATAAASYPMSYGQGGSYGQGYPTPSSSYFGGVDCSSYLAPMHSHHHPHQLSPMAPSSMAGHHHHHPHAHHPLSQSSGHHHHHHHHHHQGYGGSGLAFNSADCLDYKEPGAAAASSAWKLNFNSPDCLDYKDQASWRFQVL
Regarding MSCQQNQQQCQPPPKYIPKCPPKCLTPRCPPKCPPKCPPVSSCCSVSSGGCCGSSSGGSCGSSSGGCCSSGGGGCCLSHHRRRRSHCHRPQSSGCCSQPSGGSSCCGGGSGQHSGGCC [C16Y], the “effect of a mutation on the interaction” value was “with no effect”.

Variants of B1 are the subject of the next assay. The following applies: with kra32_human KRTAP3-2, Q9BYR7.
Chain of kra32_human KRTAP3-2, Q9BYR7 (Q9BYR7 whole entry): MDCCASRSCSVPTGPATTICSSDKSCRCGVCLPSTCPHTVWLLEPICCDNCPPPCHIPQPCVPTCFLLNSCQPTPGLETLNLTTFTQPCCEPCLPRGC
MSCQQNQQQCQPPPKYIPKCPPKCLTPRCPPKCPPKCPPVSSCCSVSSGGCCGSSSGGSCGSSSGGCCSSGGGGCCLSHHRRRRSHCHRPQSSGCCSQPSGGSSCCGGGSGQHSGGCC [C16Y]: the “effect of a mutation on the interaction” value is reported as “with no effect”.

In a further assay the parent is B1. The following applies: with nt2na_human NOTCH2NLA.
As to MSCQQNQQQCQPPPKYIPKCPPKCLTPRCPPKCPPKCPPVSSCCSVSSGGCCGSSSGGSCGSSSGGCCSSGGGGCCLSHHRRRRSHCHRPQSSGCCSQPSGGSSCCGGGSGQHSGGCC [C16Y], the “effect of a mutation on the interaction” value was “with no effect”.
